Experimental data taken from paper PMC5503811.

What was measured:
ALDH7A1 G255D (human) = test: AUC
[1] = molecular target: wild-type human aldehyde dehydrogenase 7A1 (human); test: AUC

Ka (ALDH7A1 G255D (human)) | stoichiometry N [1] | Substance
750000 M⁻¹ |  | ALDH7A1 G255D (enzyme)
 | 4 | wild-type human aldehyde dehydrogenase 7A1 (enzyme)
